Experimental data from US7795390B2, “Biological substance nesfatin and its related substances and uses thereof” (Teijin Pharma Limited, priority 2005, dated 2010).

How the values were obtained:
Wistar rats [1] = assay: Continuous intraventricular administration of nesfatin antisense RNA, food intake and body weight; format: in vivo, rat
Method: As the antisense RNA against nesfatin-1 gene, was used a morpholino RNA which sandwiches a translational start site, as follows.
The administration of nesfatin antisense RNA was carried out into the ventricle by an osmotic pump for 12 consecutive days using an osmotic pump. Among 8 week-old male Wistar rats (purchased from Nippon SLC), those individuals weighing 200-250 g were selected and used. The rats received intraperitoneal administration of 40 mg/kg body weight of pentobarbital sodium for anesthesia. After the hair was removed from the head, they were fixed in a brain stereotaxic apparatus (David Kopf Instruments, Model 962) and the scalp was incised and a 23G needle (guide cannula) was implanted so that the tip reaches the third ventricle (2.5 mm behind the bregma, 9.5 mm from the surface). One week after implanting the guide cannula, the animals were subjected to the experiment. The osmotic pump used was Alzet's Model 2002 that was primed in sterilized physiological saline from the day before use. Nesfatin antisense RNA (antisense administration group) dissolved in physiological saline that was filter-sterilized with 0.22 μm Millex GV filter, or missence RNA (ATcGTgCTCCACgTCATCTaCAcAG) sterilized in the same manner that dissolved in sterilized physiological saline (control group) were injected into the osmotic pump immediately before use. […] The measurement of the amount of food intake started from the day after the cannula and the osmotic pump were implanted, and the weight of the residual food was measured at 9 a.m. every day and, by determining the difference from the weight of the food on the previous day, the amount of food intake of the day (24 hours) was calculated. From day 6 after the start of administration, body weight was measured at the time of measuring the amount of food intake, and changes in body weight were also recorded.

nesfatin-1 = assay: Western blotting of nesfatin-1 in hypothalamus after antisense RNA administration (densitometry); format: in vivo; settings: rat hypothalamus, day 12; control group 14.3±1.2 AU
Method: On day 12 after the start of administration, the individuals in each group were sacrificed, and the hypothalamus in the brain was removed. Using the sample extracted, the expression of nesfatin was confirmed by Western blotting with nesfatin-1 Ab. Western blotting was carried out in a manner similar to those described in Working Examples 13 and 12. The concentration of bands stained in Western blotting was determined by densitometry.

Wistar rats [2] = assay: Administration of recombinant nesfatin into the third ventricle, amount of food intake; format: in vivo, rat; settings: for control activity of food intake: 1-3 hour and 3-6 hours
Method: Rats used were Wistar rats (purchased from Nippon SLC), and the animals were housed under a cycle of 12 hours of the light period from 6 a.m. to 6 p.m. and 12 hours of the dark period from 6 p.m. to 6 a.m. the next morning and fed a powder chew (Nippon Clea, CE-2), and kept at 22° C., and housing was continued under a similar condition during the experiment. For the experiment, among 8-9 week-old male Wistar rats, those individuals weighing 200-250 g were used. For administration, 5 μl of saline (control) or recombinant nesfatin prepared in Working Example 5 dissolved to 0.2 pmol, 0.6 pmol and 3.0 pmol in 5 μl of PBS was administered per individual (N=5 for each group). The rats received intraperitoneal administration of 40 mg/kg body weight of pentobarbital sodium for anesthesia. After the hair was removed from the head, they were fixed in a brain stereotaxic apparatus (David Kopf Instruments, Model 962) and the scalp was incised and a 23G needle (guide cannula) was implanted so as to reach the third ventricle (2.5 mm behind the bregma, 9.5 mm from the surface). One week after implanting the guide cannula, the animals were subjected to the experiment. After recovering from the surgery, a 29G cannula for injection was inserted into the guide cannula under no anesthesia, and 5 μl of PBS or the matured mouse nesfatin solution in PBS was administered at a rate of 1 μl/second. After fixing the cannula as it was for 2-3 minutes after the administration, the cannula was extracted, and the animals were returned to the individual cages. One, three, and six hours thereafter, the weight of the food was determined to record the amount of food intake, which was used as an index of feeding behavior. For the test of significant difference, analysis of variance was used.
The PCR product obtained was subjected to 1% agarose gel electrophoresis to excise an amplified band, which was purified with QIAEX-II kit (QIAGEN). The amplified DNA excised was cleaved with restriction enzymes SpeI and NotI, and ligated to pET41a(+) plasmid vector (Novagen) cleaved with restriction enzymes SpeI and NotI, using the Quick DNA ligase kit (New England Biolabs). From the cloned DNA, a clone, which has no errors in mutant portions introduced after analyzing DNA sequences in a similar manner to Working Example 5 and other nucleotide sequences, can be selected to obtain a vector for expressing the KR-AA mutant. The expression and purification were carried out in a similar manner to Working Example 5. The amino acid sequence of the KR-AA mutant obtained is set forth in SEQ ID NO: 61. Wt (normal nesfatin), which was prepared in Working Example 5, was used. 5 pmol each of the KR-AA mutant (Mut) peptide and the normal nesfatin (Wt) peptide were administered to the third ventricle of rats in a similar manner to Working Example 6. One, three, six and 12 hours thereafter, the weight of the food was determined to record the amount of food intake, which was used as an index of feeding behavior.
Also, in the same manner as in Working Example 6, after 5 pmol of nesfatin was administered into the rat ventricle, the amount of food intake was determined during 0-1 hour/1-3 hours/3-6 hours after the administration. The control group used was the one that only received physiological saline (0 pmol). For testing of significant difference, analysis of variance was used.

Wistar rats [3] = assay: Administration of nesfatin-1, nesfatin-2, nesfatin-3, nesfatin-2/3 into the third ventricle, amount of food intake; format: in vivo, rat; settings: given alone into the third ventricle (nesfatin-1 5 pmol; leptin 1 μg); vs saline control
Method: Samples used for intracerebral administration were PBS alone (vehicle group), or nesfatin-1, nesfatin-2, nesfatin-3 or nesfatin-2/3 prepared in Working Example 10 each dissolved in PBS, and 25 pmol was administered per individual into the third ventricle immediately before the dark period. Rats used were Wistar rats (purchased from Nippon SLC) and were housed as in Working Example 6, and among 8-9 week-old male Wistar rats, those individuals weighing 200-250 g were selected and used (N=5). The technique of intraventricular administration and the measurement of the amount of food intake in rats were carried out in a method similar to those in Working Example 6. In the measurement of the amount of food intake, the reduced amount of food at 1 hour after administration (0-1 hr) and 2 hours after administration (1-3 hrs) was determined as food intake.
In the same condition above, 1, 5 or 25 pmol of nesfatin-1 as a sample was administered per rat individual into the third ventricle immediately before the dark period. In this experiment, the amount of food intake was determined at 1 hour after administration (0-1 hr).
The experimental condition was similar to that in Working Example 12, and 5 pmol of nesfatin-1 was administered into the third ventricle of the rat brain immediately before the start of the dark period, the amount decreased of the food (the amount of food intake) during 1 hour immediately after administration (0-1 hr), during 2 hours from 1 hour after the administration (1-3 hr), during 3 hours from 3 hours after the administration (3-6 hr), and during 6 hours from 6 hours after the administration (6-12 hr) was measured as the amount of food intake. As the control group, the amount of food intake by individuals that received physiological saline alone was measured.
The experimental condition was similar to that in Working Example 12, and for a group that received 5 pmol of nesfatin-1 alone into the third ventricle of the rat brain immediately before the start of the dark period and a group that received 5 pmol of nesfatin-1 and 8 μg of anti-nesfatin-1 antibody (nesfatin-1 IgG), the amount of food intake for 1 hour after administration was measured and compared to that for the control group (physiological saline alone was administered). Also, for a group that received only leptin (Rat leptin: R & D Systems, 598-LP-01M) (1 μg) which is known to have an activity of suppressing food intake by intraventricular administration and a group that received leptin and anti-nesfatin-1 antibody, its effect on food intake was also studied.

[4] = 5 pmol intraventricular, 0-1 hour

Molecule | amount of food intake during 24 hours (Wistar rats [1]; 40 μg, osmotic pump, third ventricle, 12 days, from day 1, vs missense RNA control) | body weight (Wistar rats [1]; day 6 after the start of administration, vs missense RNA control) | body weight (Wistar rats [1]; day 7 and after, P<0.05 vs missense RNA control) | expression of nesfatin-1, band intensity by densitometry (nesfatin-1) | amount of food intake (Wistar rats [2]; 4 pmol or 20 pmol into the brain ventricle, 0-1 hour, p<0.01 vs 0 pmol) | amount of food intake (Wistar rats [2]; 5 pmol intraventricular, 0-1 hour (p<0.01), 1-3 hours (p<0.05) and 3-6 hours (p<0.001)) | control activity of food intake (Wistar rats [2]; [4]) | amount of food intake (Wistar rats [2]; 5 pmol intraventricular, 6-12 hours) | amount of food intake (Wistar rats [2]; 20 pmol into the third ventricle, any of 0-1 hour/1-3 hours/3-6 hours, P<0.01 vs control) | amount of food intake (Wistar rats [2]; 1, 4 and 20 pmol into the third ventricle, 0-1, 1-3 and 3-6 hours, vs saline) | amount of food intake for 1 hour after administration (Wistar rats [3])
5-ATGGTCCTCCACCTCATCTTCAGAG-3 (all phosphorodiamidate morpholino (PMO)) [nesfatin antisense RNA] | an increase in the amount of food intake | no difference | significant increase in body weight | 8.5±0.7 AU | – | – | – | – | – | – | –
recombinant nesfatin: recombinant matured mouse nesfatin (SEQ ID NO: 26) expressed in E. coli as GST fusion and cleaved with thrombin (protein, Chemically-synthesized nesfatin mutant protein) GSPIDVDKTKVHNTEPVENARIEPPDTGLYYDEYLKQVIEVLETDPHFREKLQKADIEEIRSGRLSQELDLVSHKVRTRLDELKRQEVGRLRMLIKAKLDALQDTGMNHHLLLKQFEHLNHQNPNTFESRDLDMLIKAATADLEQYDRTRHEEFKKYEMMKEHERREYLKTLSEEKRKEEESKFEEMKRKHEDHPKVNHPGSKDQLKEVWEETDGLDPNDFDPKTFFKLHDVNNDGFLDEQELEALFTRELEKVYNPQNAEDDMIEMEEERLRMREHVMSEIDNNKDRLVTLEEFLRATEKKEFLEPDSWETLDQQQLFTEDELKEYESIIAIQENELKKRAEELQKQKEDLQRQHDHLEAQKQEYHQAVQHLEQKKLQQGIAPSGPAGELKFEPHT | – | – | – | – | significantly reduced | significant reduction in the amount of food intake | a significant control activity of food intake was observed | no difference | significant activity of suppressing food intake | reduction in the amount of food intake was noted in a dose dependent manner | significantly decreased
Mut: nesfatin mutant in which Lys-Arg at amino acid numbers 84 and 85 is replaced with Ala-Ala (SEQ ID NO: 61) (protein, Chemically-synthesized KR-AA mutant polypeptide) GSPIDVDKTKVHNTEPVENARIEPPDTGLYYDEYLKQVIEVLETDPHFREKLQKADIEEIRSGRLSQELDLVSHKVRTRLDELAAQEVGRLRMLIKAKLDALQDTGMNHHLLLKQFEHLNHQNPNTFESRDLDMLIKAATADLEQYDRTRHEEFKKYEMMKEHERREYLKTLSEEKRKEEESKFEEMKRKHEDHPKVNHPGSKDQLKEVWEETDGLDPNDFDPKTFFKLHDVNNDGFLDEQELEALFTRELEKVYNPQNAEDDMIEMEEERLRMREHVMSEIDNNKDRLVTLEEFLRATEKKEFLEPDSWETLDQQQLFTEDELKEYESIIAIQENELKKRAEELQKQKEDLQRQHDHLEAQKQEYHQAVQHLEQKKLQQGIAPSGPAGELKFEPHT | – | – | – | – | – | – | no control activity of food intake was observed | – | – | – | –
